Changes are numbered by the printed parent chain.
T1: Human CD19-his protein (human, UniProt P15391 20-291)
T1 construct: bought protein; also called recombinant human CD19-His; CD19 full-length protein; not shown: His tag
T1 sequence (looked up): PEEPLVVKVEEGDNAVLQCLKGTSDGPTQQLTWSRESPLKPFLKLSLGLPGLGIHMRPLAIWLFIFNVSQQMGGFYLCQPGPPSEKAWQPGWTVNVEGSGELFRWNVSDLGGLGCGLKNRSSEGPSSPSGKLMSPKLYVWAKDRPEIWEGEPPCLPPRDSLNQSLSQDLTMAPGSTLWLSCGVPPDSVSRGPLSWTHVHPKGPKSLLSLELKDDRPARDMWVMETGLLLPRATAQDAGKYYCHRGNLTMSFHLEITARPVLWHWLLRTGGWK

T2: human CD19 on CHO-K1-human CD19 cells (human, UniProt P15391 20-556)
T2 construct: whole, on cells; also called CHO-K1-human CD19-2C8
T2 sequence (looked up): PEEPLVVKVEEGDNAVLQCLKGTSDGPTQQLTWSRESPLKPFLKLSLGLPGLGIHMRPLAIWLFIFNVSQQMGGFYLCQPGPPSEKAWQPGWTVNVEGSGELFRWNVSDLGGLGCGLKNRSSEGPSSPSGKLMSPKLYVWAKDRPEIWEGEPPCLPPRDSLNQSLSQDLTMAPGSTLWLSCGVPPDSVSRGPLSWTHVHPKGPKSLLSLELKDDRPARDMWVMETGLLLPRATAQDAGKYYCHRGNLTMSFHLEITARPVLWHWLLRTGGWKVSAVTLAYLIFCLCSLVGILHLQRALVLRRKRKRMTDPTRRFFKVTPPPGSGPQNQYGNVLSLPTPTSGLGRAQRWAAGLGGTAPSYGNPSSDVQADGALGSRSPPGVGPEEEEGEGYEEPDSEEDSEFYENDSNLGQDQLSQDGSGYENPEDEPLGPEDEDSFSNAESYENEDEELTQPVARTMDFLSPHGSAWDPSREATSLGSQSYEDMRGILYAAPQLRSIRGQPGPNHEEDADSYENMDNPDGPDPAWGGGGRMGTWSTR

T3: human CD19 exon1-3-His tag protein (human, UniProt P15391 20-186, limits assumed)
T3 construct: membrane-distal part of the extracellular region, made in HEK293E cells; not shown: His tag
T3 sequence (looked up): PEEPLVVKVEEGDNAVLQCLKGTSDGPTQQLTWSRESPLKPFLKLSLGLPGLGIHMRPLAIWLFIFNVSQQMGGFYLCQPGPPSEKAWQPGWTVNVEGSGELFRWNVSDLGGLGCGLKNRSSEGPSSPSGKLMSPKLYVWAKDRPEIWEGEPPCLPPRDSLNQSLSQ

T4: human CD19 on Raji cells (human, UniProt P15391 20-556)
T4 construct: whole, on cells
T4 sequence (looked up): T2 sequence (looked up)

B1: F3.121.4-L3H3 (antibody, mouse IgG1, kappa)
heavy: EVQLVQSGAEVKKPGASVKVSCKASGYTFTNYWMHWVRQRPGQGLEWMGEIDPSDNYANYNQEFQGRVTITVDKSASTAYMELSSLRSEDTAVYYCARHDGYFGALDYWGQGTTVTVSSAKTTPPSVYPLAPGSAAQTNSMVTLGCLVKGYFPEPVTVTWNSGSLSSGVHTFPAVLQSDLYTLSSSVTVPSSTWPSETVTCNVAHPASSTKVDKKIVPRDCGCKPCICTVPEVSSVFIFPPKPKDVLTITLTPKVTCVVVDISKDDPEVQFSWFVDDVEVHTAQTQPREEQFNSTFRSVSELPIMHQDWLNGKEFKCRVNSAAFPAPIEKTISKTKGRPKAPQVYTIPPPKEQMAKDKVSLTCMITDFFPEDITVEWQWNGQPAENYKNTQPIMDTDGSYFVYSKLNVQKSNWEAGNTFTCSVLHEGLHNHHTEKSLSHSPGK
light: EIVLTQSPDFQSVTPKEKVTITCSASSSISSNYLHWYQQKPDQSPKFLIYRTSNLASGVPSRFSGSGSGTDFTLTINSLEAEDAATYYCQQASSIPRMFTFGQGTKLEIKRADAAPTVSIFPPSSEQLTSGGASVVCFLNNFYPKDINVKWKIDGSERQNGVLNSWTDQDSKDSTYSMSSTLTLTKDEYERHNSYTCEATHKTSTSPIVKSFNRNEC
notes: humanized antibody of F3.121.4, VL3+VH3, murine IgG1 constant regions
B2: F3.121.4-L3H4 (antibody, mouse IgG1, kappa)
heavy: B1 heavy with V5Q
light: B1 light
notes: humanized antibody of F3.121.4, VL3+VH4, murine IgG1 constant regions
B3: F3.121.4 (antibody, human IgG1, V domains shown)
VH: QVQLQQPGAELVVPGTSVKLSCKASGYTFTNYWMHWVKQRPGQGLEWIGEIDPSDNYANYNQEFQGKATLTVDKSSSTAYMQLSSLTSDDSAVYYCARHDGYFGALDYWGQGTSVTVSS
VL: EIVLTQSPTTMAASPGEKITITCSASSSISSNYLHWYQQKPGFSPKFLIYRTSNLASGVPARFSGSGSGTSYSLTIGTMEAEDVATYYCQQASSIPRMFTFGSGTKLEIK
notes: human-murine chimeric antibody, human IgG1 constant; also called chimeric antibody F3.121.4

Tests used:
Human CD19-his protein [1] = target: T1, Human CD19-his protein; experiment: SPR Biacore, method of example 7.1, human CD19-His
Description: A sample buffer and a running buffer were HBS-EP+ (10 mM HEPES, 150 mM NaCl, 3 mM EDTA and 0.05% surfactant P20) (GE Healthcare; BR-1006-69). The flow-through cell was set to 25° C. The sample block was set to 16° C. Both were pretreated with the running buffer. In each cycle, an antibody to be detected was first captured with a Protein A chip, and then a single concentration of CD19 antigen protein was injected. The binding and dissociation processes of the antibody and the antigen protein were recorded, and finally Glycine pH 1.5 (GE Healthcare; BR-1003-54) was used to complete chip regeneration. The binding was measured by injecting different concentrations of recombinant human CD19-His proteins in a solution for 240 s with a flow rate of 30 μl/min. The concentration started from 200 nM (see the detailed results for the actual concentration in the test) and was diluted at 1:1, making a total of 5 concentrations. The dissociation phase was monitored for up to 600 s and was triggered by switching from sample solution to running buffer. The surface was regenerated by washing with a 10 mM glycine solution (pH 1.5) for 30 s at a flow rate of 30 μl/min. Bulk refractive index difference was corrected by subtracting the response obtained from the goat anti-human Fc surface. Blank injection was also subtracted (=double reference). For calculation of apparent KD and other kinetic parameters, Langmuir 1:1 model was used.
SPR (biacore) detection and data analysis were performed according to the method in example 7.1.

[2] = target: T2, human CD19 on CHO-K1-human CD19 cells; experiment: FACS on CHO-K1-human CD19 cells
Description: (§1) After the digestion was terminated, the cells were washed 2 times with a PBS buffer; and for suspension cell Raji, the supernatant of the medium was discarded by directly centrifugation, and the cell pellet was washed 2 times with PBS. After counting the cells in the previous step, the cell pellet was resuspended with [PBS+2% (w/w) BSA] blocking solution to 2×10⁶ cells/ml, and added to a 96-well FACS reaction plate at 50 μl/well, and then the sample to be tested was added at 50 μl/well, and incubated on ice for 2 h. The obtained mixture was centrifuged and washed 3 times with a PBS buffer. […] The obtained mixture was centrifuged and washed 5 times with a PBS buffer, and FACS (FACS Canto™, purchased from BD Company) was used for detection and result analysis. Data analysis was performed by software (FlowJo) to obtain the mean fluorescence intensity (MFI) of the cells. And then software (GraphPad Prism8) was used for analysis, data fitting, and EC50 value calculation. […] The same method was used to detect the binding of the chimeric antibodies to endogenous CD19-negative cells, MoLT4 cells (purchased from ATCC, CRL-1582), and CHO-K1 cells.

[3] = target: T3, human CD19 exon1-3-His tag protein; experiment: ELISA, coated human CD19 exon 1-3-His
Human CD19-his protein [4] = target: T1, Human CD19-his protein; experiment: ELISA, coated human CD19-His
Description: Human CD19-his protein (purchased from ACROBiosystems, catalog number: CD9-H52H2) was diluted with PBS to a final concentration of 4 μg/mL, and then added to a 96-well ELISA plate at 100 μl/well. The plate was sealed with a plastic film and incubated overnight at 4° C., the plate was washed 2 times with PBS the next day, and then a blocking solution [PBS+2% (w/w) BSA] was added for blocking at room temperature for 2 h. The blocking solution was poured off, and 100 nM gradiently diluted CD19 chimeric antibody or control antibody was added at 50 μl/well. After incubation at 37° C. for 2 h, the plate was washed 3 times with PBS. […] TMB substrate was added at 50 μl/well, and incubated at room temperature for 10 min, and then a stop solution (1.0 N HCl) was added at 50 μl/well. The OD450 nm values were read by an ELISA microplate reader (Multimode Plate Reader, EnSight, purchased from Perkin Elmer).

human CD19 on Raji cells = target: T4, human CD19 on Raji cells; experiment: FACS on Raji cells
Description: as §1

Human CD19-his protein [5] = target: T1, Human CD19-his protein; experiment: ELISA on coated human CD19-His
[6] = target: T3, human CD19 exon1-3-His tag protein; experiment: ELISA on coated human CD19 exon 1-3-His
Human CD19-his protein [7] = target: T1, Human CD19-his protein; experiment: SPR Biacore, Ab captured on Protein A, CD19-His analyte
How it was run: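 Antibodies were captured on a Protein A chip at 25 °C in HBS-EP+. Human CD19-His was injected for 240 s at 30 μl/min at 5 concentrations from 200 nM (1:1 dilutions), with dissociation up to 600 s. Data were double-referenced and fitted to a Langmuir 1:1 model for apparent KD.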

| Binder | Kd (Human CD19-his protein [1]) [nM] | koff (Human CD19-his protein [1]) [s⁻¹] | kon (Human CD19-his protein [1]) [M⁻¹ s⁻¹] | EC50 [2] [nM] | Maximum mean fluorescence intensity [2] [MFI] | OD450 at 0.0001 nM [3] [OD450] | OD450 at 0.001 nM [3] [OD450] | OD450 at 0.01 nM [3] [OD450] | OD450 at 0.10 nM [3] [OD450] | OD450 at 1.00 nM [3] [OD450] | OD450 at 10 nM [3] [OD450] | OD450 at 100 nM [3] [OD450] | OD450 at 0.0001 nM (Human CD19-his protein [4]) [OD450] | OD450 at 0.001 nM (Human CD19-his protein [4]) [OD450] | OD450 at 0.01 nM (Human CD19-his protein [4]) [OD450] | OD450 at 0.10 nM (Human CD19-his protein [4]) [OD450] | OD450 at 1.00 nM (Human CD19-his protein [4]) [OD450] | OD450 at 10 nM (Human CD19-his protein [4]) [OD450] | OD450 at 100 nM (Human CD19-his protein [4]) [OD450] | EC50 (human CD19 on Raji cells) [nM] | other results |
| --- | --- | --- | --- | --- | --- | --- | --- | --- | --- | --- | --- | --- | --- | --- | --- | --- | --- | --- | --- | --- | --- |
| B1 | 0.0088 | 1.04e-06 | 118000 | 1.16 | 51800 | 0.05 | 0.05 | 0.05 | 0.05 | 0.05 | 0.05 | 0.08 | 0.1 | 0.15 | 0.43 | 1.65 | 2.28 | 2.22 | 2.19 | 0.45 | Maximum mean fluorescence intensity (human CD19 on Raji cells): 32200 MFI; EC50 (read off the curve) (Human CD19-his protein [5]): ~0.05 nM |
| B2 | 0.225 | 2.51e-05 | 112000 | 1.05 | 50500 | 0.06 | 0.06 | 0.06 | 0.06 | 0.06 | 0.07 | 0.11 | 0.11 | 0.16 | 0.51 | 1.68 | 2.31 | 2.26 | 2.31 | 0.43 | Maximum mean fluorescence intensity (human CD19 on Raji cells): 32500 MFI; EC50 (read off the curve) (Human CD19-his protein [5]): ~0.05 nM |
| B3 | 1.15 | 0.000375 | 327000 | 0.3 | 53700 | 0.05 | 0.05 | 0.05 | 0.05 | 0.05 | 0.05 | 0.07 | 0.05 | 0.06 | 0.11 | 0.5 | 0.88 | 1.04 | 0.82 | 0.31 | binding result [6]: no binding (tested: 100 nM); Maximum mean fluorescence intensity (human CD19 on Raji cells): 32900 MFI; EC50 (read off the curve) (Human CD19-his protein [5]): ~0.1 nM; Kd (Human CD19-his protein [7]): 1.15 nM; koff (Human CD19-his protein [7]): 0.000375 s⁻¹; kon (Human CD19-his protein [7]): 327000 M⁻¹ s⁻¹ |

— patent publication US20250042994A1 (HAINAN SIMCERE ZAIMING PHARMACEUTICAL, published 2025)
